Data taken from patent publication US20180086841A1.

What was measured:
G16A [1] = assay: flow cytometry on CHO-K1 transfectants, left sub-column
S63A [2] = assay: as above
R10A [3] = assay: as above
W13A [4] = assay: as above
N88A [5] = assay: as above
Q41A [6] = assay: as above
R87A [7] = assay: as above
I46A [8] = assay: as above
E9A [9] = assay: as above
R37A [10] = assay: as above
D43A [11] = assay: as above
H60A [12] = assay: as above
Q91A [13] = assay: as above
F28A [14] = assay: as above
K38A [15] = assay: as above
P8A [16] = assay: as above
W90A [17] = assay: as above
G89A [18] = assay: as above
P44A [19] = assay: as above
H36A [20] = assay: as above
K31A [21] = assay: as above
R93A [22] = assay: as above
V30A [23] = assay: as above
V49A [24] = assay: as above
K17A [25] = assay: flow cytometry on CHO-K1 transfectants, right sub-column, cell hatched (loss of binding)
Q15A [26] = assay: as above
D32A [27] = assay: as above
G16A [28] = assay: flow cytometry on CHO-K1 transfectants, right sub-column
S63A [29] = assay: as above
R10A [30] = assay: as above
W13A [31] = assay: as above
N88A [32] = assay: as above
Q41A [33] = assay: as above
R87A [34] = assay: as above
I46A [35] = assay: as above
E9A [36] = assay: as above
R37A [37] = assay: as above
D43A [38] = assay: as above
H60A [39] = assay: as above
Q91A [40] = assay: as above
F28A [41] = assay: as above
K38A [42] = assay: as above
P8A [43] = assay: as above
W90A [44] = assay: as above
G89A [45] = assay: as above
P44A [46] = assay: as above
H36A [47] = assay: as above
K31A [48] = assay: as above
R93A [49] = assay: as above
V30A [50] = assay: as above
V49A [51] = assay: as above
K17A [52] = assay: flow cytometry on CHO-K1 transfectants, left sub-column, cell hatched (loss of binding)
Q15A [53] = assay: as above
D32A [54] = assay: as above
K17A [55] = assay: flow cytometry on CHO-K1 transfectants, left sub-column
Q15A [56] = assay: as above
D32A [57] = assay: as above
R37A [58] = assay: flow cytometry on CHO-K1 transfectants, right sub-column, cell hatched (loss of binding)
K38A [59] = assay: as above
K17A [60] = assay: flow cytometry on CHO-K1 transfectants, right sub-column
Q15A [61] = assay: as above
D32A [62] = assay: as above
R37A [63] = assay: flow cytometry on CHO-K1 transfectants, left sub-column, cell hatched (loss of binding)
K38A [64] = assay: as above

Chain of Q15A (receptor chain, as listed by the source Q15A Q15A limits assumed): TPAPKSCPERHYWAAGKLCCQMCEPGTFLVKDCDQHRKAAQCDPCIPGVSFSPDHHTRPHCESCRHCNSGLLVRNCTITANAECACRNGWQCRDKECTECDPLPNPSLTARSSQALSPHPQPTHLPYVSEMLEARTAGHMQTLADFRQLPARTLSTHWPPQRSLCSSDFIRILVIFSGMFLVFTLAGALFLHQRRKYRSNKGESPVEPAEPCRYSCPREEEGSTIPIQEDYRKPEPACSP
Chain of P8A (receptor chain, as listed by the source limits assumed): as the sequence (receptor chain, as listed by the source Q15A Q15A limits assumed) above, with P8A, A15Q counted along it
Chain of W90A (receptor chain, as listed by the source W90A W90A limits assumed): as the sequence (receptor chain, as listed by the source Q15A Q15A limits assumed) above, with A15Q, W90A counted along it
Chain of N88A (receptor chain, as listed by the source N88A N88A limits assumed): as the sequence (receptor chain, as listed by the source Q15A Q15A limits assumed) above, with A15Q, N88A counted along it
Chain of V49A (receptor chain, as listed by the source V49A V49A limits assumed): as the sequence (receptor chain, as listed by the source Q15A Q15A limits assumed) above, with A15Q, V49A counted along it
Chain of D32A (receptor chain, as listed by the source D32A D32A limits assumed): as the sequence (receptor chain, as listed by the source Q15A Q15A limits assumed) above, with A15Q, D32A counted along it
Chain of R87A (receptor chain, as listed by the source R87A R87A limits assumed): as the sequence (receptor chain, as listed by the source Q15A Q15A limits assumed) above, with A15Q, R87A counted along it
Chain of H36A (receptor chain, as listed by the source H36A H36A limits assumed): as the sequence (receptor chain, as listed by the source Q15A Q15A limits assumed) above, with A15Q, H36A counted along it
Chain of P44A (receptor chain, as listed by the source P44A P44A limits assumed): as the sequence (receptor chain, as listed by the source Q15A Q15A limits assumed) above, with A15Q, P44A counted along it
Chain of S63A (receptor chain, as listed by the source S63A S63A limits assumed): as the sequence (receptor chain, as listed by the source Q15A Q15A limits assumed) above, with A15Q, S63A counted along it
Chain of W13A (receptor chain, as listed by the source W13A W13A limits assumed): as the sequence (receptor chain, as listed by the source Q15A Q15A limits assumed) above, with W13A, A15Q counted along it
Chain of R93A (receptor chain, as listed by the source R93A R93A limits assumed): as the sequence (receptor chain, as listed by the source Q15A Q15A limits assumed) above, with A15Q, R93A counted along it
Chain of K17A (receptor chain, as listed by the source K17A K17A limits assumed): as the sequence (receptor chain, as listed by the source Q15A Q15A limits assumed) above, with A15Q, K17A counted along it
Chain of E9A (receptor chain, as listed by the source limits assumed): as the sequence (receptor chain, as listed by the source Q15A Q15A limits assumed) above, with E9A, A15Q counted along it
Chain of K38A (receptor chain, as listed by the source K38A K38A limits assumed): as the sequence (receptor chain, as listed by the source Q15A Q15A limits assumed) above, with A15Q, K38A counted along it
Chain of Q41A (receptor chain, as listed by the source Q41A Q41A limits assumed): as the sequence (receptor chain, as listed by the source Q15A Q15A limits assumed) above, with A15Q, Q41A counted along it
Chain of G89A (receptor chain, as listed by the source G89A G89A limits assumed): as the sequence (receptor chain, as listed by the source Q15A Q15A limits assumed) above, with A15Q, G89A counted along it
Chain of D43A (receptor chain, as listed by the source D43A D43A limits assumed): as the sequence (receptor chain, as listed by the source Q15A Q15A limits assumed) above, with A15Q, D43A counted along it
Chain of F28A (receptor chain, as listed by the source F28A F28A limits assumed): as the sequence (receptor chain, as listed by the source Q15A Q15A limits assumed) above, with A15Q, F28A counted along it
Chain of R10A (receptor chain, as listed by the source R10A R10A limits assumed): as the sequence (receptor chain, as listed by the source Q15A Q15A limits assumed) above, with R10A, A15Q counted along it
Chain of H60A (receptor chain, as listed by the source H60A H60A limits assumed): as the sequence (receptor chain, as listed by the source Q15A Q15A limits assumed) above, with A15Q, H60A counted along it
Chain of R37A (receptor chain, as listed by the source R37A R37A limits assumed): as the sequence (receptor chain, as listed by the source Q15A Q15A limits assumed) above, with A15Q, R37A counted along it
Chain of G16A (receptor chain, as listed by the source G16A G16A limits assumed): as the sequence (receptor chain, as listed by the source Q15A Q15A limits assumed) above, with A15Q, G16A counted along it
Chain of K31A (receptor chain, as listed by the source K31A K31A limits assumed): as the sequence (receptor chain, as listed by the source Q15A Q15A limits assumed) above, with A15Q, K31A counted along it
Chain of V30A (receptor chain, as listed by the source V30A V30A limits assumed): as the sequence (receptor chain, as listed by the source Q15A Q15A limits assumed) above, with A15Q, V30A counted along it
Chain of I46A (receptor chain, as listed by the source I46A I46A limits assumed): as the sequence (receptor chain, as listed by the source Q15A Q15A limits assumed) above, with A15Q, I46A counted along it
Chain of Q91A (receptor chain, as listed by the source Q91A Q91A limits assumed): as the sequence (receptor chain, as listed by the source Q15A Q15A limits assumed) above, with A15Q, Q91A counted along it

## 1A4 (mouse IgG1) (antibody)
G16A [1]
  binding, WT hCD27 = 100 (GM FITC): 90.8%
S63A [2]
  binding, WT hCD27 = 100 (GM FITC): 158%
R10A [3]
  binding, WT hCD27 = 100 (GM FITC): 107%
W13A [4]
  binding, WT hCD27 = 100 (GM FITC): 89.1%
N88A [5]
  binding, WT hCD27 = 100 (GM FITC): 154%
Q41A [6]
  binding, WT hCD27 = 100 (GM FITC): 106%
R87A [7]
  binding, WT hCD27 = 100 (GM FITC): 143%
I46A [8]
  binding, WT hCD27 = 100 (GM FITC): 129%
E9A [9]
  binding, WT hCD27 = 100 (GM FITC): 98.2%
R37A [10]
  binding, WT hCD27 = 100 (GM FITC): 115%
D43A [11]
  binding, WT hCD27 = 100 (GM FITC): 195%
H60A [12]
  binding, WT hCD27 = 100 (GM FITC): 167%
Q91A [13]
  binding, WT hCD27 = 100 (GM FITC): 146%
F28A [14]
  binding, WT hCD27 = 100 (GM FITC): 113%
K38A [15]
  binding, WT hCD27 = 100 (GM FITC): 104%
P8A [16]
  binding, WT hCD27 = 100 (GM FITC): 84.5%
W90A [17]
  binding, WT hCD27 = 100 (GM FITC): 123%
G89A [18]
  binding, WT hCD27 = 100 (GM FITC): 100%
P44A [19]
  binding, WT hCD27 = 100 (GM FITC): 146%
H36A [20]
  binding, WT hCD27 = 100 (GM FITC): 111%
K31A [21]
  binding, WT hCD27 = 100 (GM FITC): 194%
R93A [22]
  binding, WT hCD27 = 100 (GM FITC): 120%
V30A [23]
  binding, WT hCD27 = 100 (GM FITC): 161%
V49A [24]
  binding, WT hCD27 = 100 (GM FITC): 144%
K17A [25]
  binding, WT hCD27 = 100 (GM FITC): 6.8%
Q15A [26]
  binding, WT hCD27 = 100 (GM FITC): 7.6%
D32A [27]
  binding, WT hCD27 = 100 (GM FITC): 8.7%
G16A [28]
  binding, WT hCD27 = 100 (GM FITC): 97.3%
S63A [29]
  binding, WT hCD27 = 100 (GM FITC): 163%
R10A [30]
  binding, WT hCD27 = 100 (GM FITC): 113%
W13A [31]
  binding, WT hCD27 = 100 (GM FITC): 93.4%
N88A [32]
  binding, WT hCD27 = 100 (GM FITC): 116%
Q41A [33]
  binding, WT hCD27 = 100 (GM FITC): 76.1%
R87A [34]
  binding, WT hCD27 = 100 (GM FITC): 108%
I46A [35]
  binding, WT hCD27 = 100 (GM FITC): 82.7%
E9A [36]
  binding, WT hCD27 = 100 (GM FITC): 122%
R37A [37]
  binding, WT hCD27 = 100 (GM FITC): 87%
D43A [38]
  binding, WT hCD27 = 100 (GM FITC): 93.4%
H60A [39]
  binding, WT hCD27 = 100 (GM FITC): 120%
Q91A [40]
  binding, WT hCD27 = 100 (GM FITC): 120%
F28A [41]
  binding, WT hCD27 = 100 (GM FITC): 60%
K38A [42]
  binding, WT hCD27 = 100 (GM FITC): 97.7%
P8A [43]
  binding, WT hCD27 = 100 (GM FITC): 79.1%
W90A [44]
  binding, WT hCD27 = 100 (GM FITC): 96.4%
G89A [45]
  binding, WT hCD27 = 100 (GM FITC): 81.8%
P44A [46]
  binding, WT hCD27 = 100 (GM FITC): 90.5%
H36A [47]
  binding, WT hCD27 = 100 (GM FITC): 85.2%
K31A [48]
  binding, WT hCD27 = 100 (GM FITC): 138%
R93A [49]
  binding, WT hCD27 = 100 (GM FITC): 91.1%
V30A [50]
  binding, WT hCD27 = 100 (GM FITC): 102%
V49A [51]
  binding, WT hCD27 = 100 (GM FITC): 97%
K17A [52]
  binding, WT hCD27 = 100 (GM FITC): 32.4%
Q15A [53]
  binding, WT hCD27 = 100 (GM FITC): 32%
D32A [54]
  binding, WT hCD27 = 100 (GM FITC): 43.7%

## 9F4 (mouse IgG2a) (antibody)
G16A [1]
  binding, WT hCD27 = 100 (GM FITC): 94.7%
S63A [2]
  binding, WT hCD27 = 100 (GM FITC): 153%
R10A [3]
  binding, WT hCD27 = 100 (GM FITC): 104%
W13A [4]
  binding, WT hCD27 = 100 (GM FITC): 90.7%
N88A [5]
  binding, WT hCD27 = 100 (GM FITC): 153%
Q41A [6]
  binding, WT hCD27 = 100 (GM FITC): 113%
R87A [7]
  binding, WT hCD27 = 100 (GM FITC): 153%
I46A [8]
  binding, WT hCD27 = 100 (GM FITC): 137%
K17A [55]
  binding, WT hCD27 = 100 (GM FITC): 98%
E9A [9]
  binding, WT hCD27 = 100 (GM FITC): 96.6%
D43A [11]
  binding, WT hCD27 = 100 (GM FITC): 201%
H60A [12]
  binding, WT hCD27 = 100 (GM FITC): 185%
Q91A [13]
  binding, WT hCD27 = 100 (GM FITC): 149%
F28A [14]
  binding, WT hCD27 = 100 (GM FITC): 115%
P8A [16]
  binding, WT hCD27 = 100 (GM FITC): 68.5%
W90A [17]
  binding, WT hCD27 = 100 (GM FITC): 130%
G89A [18]
  binding, WT hCD27 = 100 (GM FITC): 116%
Q15A [56]
  binding, WT hCD27 = 100 (GM FITC): 107%
D32A [57]
  binding, WT hCD27 = 100 (GM FITC): 118%
P44A [19]
  binding, WT hCD27 = 100 (GM FITC): 159%
H36A [20]
  binding, WT hCD27 = 100 (GM FITC): 88.5%
K31A [21]
  binding, WT hCD27 = 100 (GM FITC): 207%
R93A [22]
  binding, WT hCD27 = 100 (GM FITC): 122%
V30A [23]
  binding, WT hCD27 = 100 (GM FITC): 166%
V49A [24]
  binding, WT hCD27 = 100 (GM FITC): 151%
R37A [58]
  binding, WT hCD27 = 100 (GM FITC): 6.2%
K38A [59]
  binding, WT hCD27 = 100 (GM FITC): 31.6%
G16A [28]
  binding, WT hCD27 = 100 (GM FITC): 102%
S63A [29]
  binding, WT hCD27 = 100 (GM FITC): 149%
R10A [30]
  binding, WT hCD27 = 100 (GM FITC): 99%
W13A [31]
  binding, WT hCD27 = 100 (GM FITC): 86.5%
N88A [32]
  binding, WT hCD27 = 100 (GM FITC): 104%
Q41A [33]
  binding, WT hCD27 = 100 (GM FITC): 71.3%
R87A [34]
  binding, WT hCD27 = 100 (GM FITC): 98.8%
I46A [35]
  binding, WT hCD27 = 100 (GM FITC): 82.7%
K17A [60]
  binding, WT hCD27 = 100 (GM FITC): 106%
E9A [36]
  binding, WT hCD27 = 100 (GM FITC): 109%
D43A [38]
  binding, WT hCD27 = 100 (GM FITC): 92.5%
H60A [39]
  binding, WT hCD27 = 100 (GM FITC): 126%
Q91A [40]
  binding, WT hCD27 = 100 (GM FITC): 111%
F28A [41]
  binding, WT hCD27 = 100 (GM FITC): 58.2%
P8A [43]
  binding, WT hCD27 = 100 (GM FITC): 62.2%
W90A [44]
  binding, WT hCD27 = 100 (GM FITC): 85.7%
G89A [45]
  binding, WT hCD27 = 100 (GM FITC): 77.5%
Q15A [61]
  binding, WT hCD27 = 100 (GM FITC): 118%
D32A [62]
  binding, WT hCD27 = 100 (GM FITC): 66.3%
P44A [46]
  binding, WT hCD27 = 100 (GM FITC): 91.7%
H36A [47]
  binding, WT hCD27 = 100 (GM FITC): 66.5%
K31A [48]
  binding, WT hCD27 = 100 (GM FITC): 133%
R93A [49]
  binding, WT hCD27 = 100 (GM FITC): 91.1%
V30A [50]
  binding, WT hCD27 = 100 (GM FITC): 95.6%
V49A [51]
  binding, WT hCD27 = 100 (GM FITC): 92.1%
R37A [63]
  binding, WT hCD27 = 100 (GM FITC): 35%
K38A [64]
  binding, WT hCD27 = 100 (GM FITC): 44.7%
